Data as given in paper PMC6407594.

Substrate: NCCCNCCCCNCCCN
Experiment: purified protein, by the assay type
Conditions: other: compound as substrate, Hepes 50 mM, pH 7.5, 37 °C

B1: murine SMOX (Mus musculus) (protein)
chain: MQSCESSGDSADDPLSRGLRRRGQPRVVVIGAGLAGLAAARALLEQGFTDVTVLEASSHIGGRVQSVRLGDTTFELGATWIHGSHGNPIYQLAEANGLLEETTDGERSVGRISLYSKNGVACYLTNRGCRIPKDVVEEFSDLYNEVYNMTQEFFRHGKPVNAESQNSVGVFTREKVRNRIRDDPDDTEATKRLKLAMIQQYLKVESCESSSHSIDEVSLSAFGEWTEIPGAHHIIPSGFMRVVELLAEGIPPHVIQLGKPVRCIHWDQASAHPRGPEIEPRGEGDHNHDTGEGGQSGENPQQGRWDEDEPWPVVVECEDCEVIPADHVIVTVSLGVLKRQYTSFFRPCLPTEKVAAIHRLGIGTTDKIFLEFEEPFWGPECNSLQFVWEDEAESCTLTYPPELWYRKICGFDVLYPPERYGHVLSGWICGEEALVMERCDDEAVAEICTEMLRQFTGNPNIPKPRRILRSAWGSNPYFRGSYSYTQVGSSGADVEKLAKPLPYTESSKTAPMQVLFSGEATHRKYYSTTHGALLSGQREAARLIEMYRDLFQQGP
  Km: 495 µM
